Experimental data from PMC9675734, “Phosphorylation disrupts long-distance electron transport in cytochrome c” (Nature Communications, 2022).

Target: T1, soluble domain of Arabidopsis thaliana cytochrome c1 (Arabidopsis thaliana, UniProt Q9FKS5 64-265)
T1 construct: Hemeprotein; Immobilised on Au(111) through Cys10 (AFM, EC-STM) or by amine coupling on the biochip (SPR); also called Cc1; plant cytochrome Cc1; source: E. coli BL21 (DE3), pET-Cc1 with pEC86 (ccmABCDEFGH), purified (Nuvia Q anion exchange, ENrich SEC 70)
T1 sequence (looked up): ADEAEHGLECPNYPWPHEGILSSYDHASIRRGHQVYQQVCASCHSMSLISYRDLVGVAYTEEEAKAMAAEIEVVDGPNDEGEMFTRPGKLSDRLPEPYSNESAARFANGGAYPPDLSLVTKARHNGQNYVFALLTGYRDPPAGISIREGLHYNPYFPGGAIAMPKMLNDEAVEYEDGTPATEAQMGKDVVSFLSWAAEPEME
Assay: SPR; SPRi; Cc1 immobilised by direct amine coupling on a CS SPRi-Biochip (10 and 15 uM drops); WT or Y48pCMF Cc flowed at 2.5 to 10 uM, 50 uL/min; 298 K; 10 mM sodium phosphate buffer pH 6.5; reference spots with rabbit serum albumin subtracted; 1:1 binding model
Details: both partners purified

B1: Homo sapiens WT cytochrome c (natural protein)
chain: not shown
notes: cytochrome c, human, CYCS gene in plasmid pBTR1-WT; Hemeprotein (heme c attached by the co-expressed heme lyase); Used as analyte in SPR; also called Cc; WT Cc; source: E. coli BL21 (DE3), pBTR1-WT with yeast Cc heme lyase (CYC3), purified (Nuvia S cation exchange)
- Kd: 527 nM
- koff: 0.00318 s⁻¹
- kon: 6540 M⁻¹ s⁻¹
